# Experimental data published in patent publication US20230322953A1 (HARBOUR BIOMED SHANGHAI, published 2023).
# T1: biotinylated human BCMA-Fc, Avitag recombinant protein (ACRO Biosystems, #BC7-H82F0) (human, UniProt Q02223 1-54, biotinylated)
# T1 construct: extracellular domain; Bought protein; also called human BCMA protein; recombinant human BCMA-ECD-Fc; not shown: Fc of the bought fusion protein; Avitag
# T1 sequence (looked up): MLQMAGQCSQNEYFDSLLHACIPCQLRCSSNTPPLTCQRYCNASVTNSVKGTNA
# T2: human BCMA (human, UniProt Q02223 1-184)
# T2 construct: whole, on cells; the cell line is named under assay; also called TNFRSF17; CD269
# T2 sequence (looked up): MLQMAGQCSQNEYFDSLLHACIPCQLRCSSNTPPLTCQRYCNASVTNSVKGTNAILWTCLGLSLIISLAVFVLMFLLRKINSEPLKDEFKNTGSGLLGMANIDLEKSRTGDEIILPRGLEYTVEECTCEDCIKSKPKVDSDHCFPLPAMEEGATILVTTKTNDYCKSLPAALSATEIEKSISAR
# T3: human BCMA (human, UniProt Q02223 1-184)
# T3 construct: whole, on cells; also called hBCMA; TNFRSF17
# T3 sequence (looked up): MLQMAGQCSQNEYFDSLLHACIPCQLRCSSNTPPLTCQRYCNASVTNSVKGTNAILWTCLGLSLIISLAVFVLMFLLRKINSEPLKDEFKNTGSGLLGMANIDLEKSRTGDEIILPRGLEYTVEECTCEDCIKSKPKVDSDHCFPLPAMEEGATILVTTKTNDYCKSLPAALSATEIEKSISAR
# Experiments:
# [1] = molecular target: T1, biotinylated human BCMA-Fc, Avitag …; assay: BLI (Octet Red96e), biotinylated BCMA-Fc on SA sensor, VH supernatant, 100 nM, single concentration
# Method: (§1) In this example, the binding kinetics between the anti-BCMA antibody and the BCMA antigenic protein were analyzed by the Biolayer Interferometry (BLI) technique using an Octet Red96e molecular interaction analyzer (ForteBio, Octet Red96e).
# [2] = molecular target: T2, human BCMA; assay: flow cytometry, NCI-H929 cells, Flag-tagged VH single domain, anti-tag secondary antibody
# Method: Specifically, HEK293T/hBCMA cells and HEK293T/cyno BCMA cells were digested and resuspended in a DMEM complete medium. In addition, NCI-H929 cell suspension was collected. The density of each of the three cells was adjusted to 1×10⁶ cells/mL. […] The cells were incubated at 4° C. for 1 h away from light. Thereafter, the cells in each well were rinsed twice with 100 μL of pre-cooled PBS, and centrifuged at 500 g at 4° C. for 5 min, and then the supernatant was discarded. […] The cells in each well were rinsed twice with 100 μL of pre-cooled PBS, and centrifuged at 500 g at 4° C. for 5 min, and then the supernatant was discarded. Finally, the cells in each well were resuspended in 200 μL of pre-cooled PBS. Fluorescence signal values were read using a BD FACS CANTOII flow cytometer or an ACEA NovoCyte flow cytometer, and the data were processed and analyzed using FlowJo v10 (FlowJo, LLC) software. The data were processed and analyzed by plotting using GraphPad Prism 8 software, and binding curves of the antibodies to target cells, EC₅₀ values and other parameters were obtained through four-parameter nonlinear fitting.
# It is specifically noted that the recombinant variant molecules are VH single-domain antibody molecules with a Flag tag, and a fluorescent secondary antibody against the tag is required in the FACS assay.
# [3] = molecular target: T1, biotinylated human BCMA-Fc, Avitag …; assay: BLI, dissociation rate relative to the original molecule PR001046 VH
# Method: as §1
# [4] = molecular target: T3, human BCMA; assay: FACS on NCI-H929 cells
# [5] = molecular target: T4, cynomolgus monkey BCMA (cynomolgus monkey, UniProt A0A2K5UD97 1-183); assay: FACS on HEK293T/cyno BCMA cells
# T4 construct: whole, on cells; also called cyno BCMA
# T4 sequence (A0A2K5UD97 entry or part of it): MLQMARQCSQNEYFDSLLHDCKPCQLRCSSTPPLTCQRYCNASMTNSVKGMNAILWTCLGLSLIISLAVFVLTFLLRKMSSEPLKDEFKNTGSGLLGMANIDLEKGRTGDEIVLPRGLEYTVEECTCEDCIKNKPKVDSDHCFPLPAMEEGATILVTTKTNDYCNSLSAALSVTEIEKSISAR
# Method: This example is intended to investigate the binding activity of anti-BCMA HCAb antibodies to human and cynomolgus monkey BCMAs. […] Specifically, HEK293T/hBCMA cells and HEK293T/cyno BCMA cells were digested and resuspended in a DMEM complete medium. In addition, NCI-H929 cell suspension was collected. The density of each of the three cells was adjusted to 1×10⁶ cells/mL. […] The cells were incubated at 4° C. for 1 h away from light. Thereafter, the cells in each well were rinsed twice with 100 μL of pre-cooled PBS, and centrifuged at 500 g at 4° C. for 5 min, and then the supernatant was discarded. […] The cells in each well were rinsed twice with 100 μL of pre-cooled PBS, and centrifuged at 500 g at 4° C. for 5 min, and then the supernatant was discarded. Finally, the cells in each well were resuspended in 200 μL of pre-cooled PBS. Fluorescence signal values were read using a BD FACS CANTOII flow cytometer or an ACEA NovoCyte flow cytometer, and the data were processed and analyzed using FlowJo v10 (FlowJo, LLC) software. The data were processed and analyzed by plotting using GraphPad Prism 8 software, and binding curves of the antibodies to target cells, EC₅₀ values and other parameters were obtained through four-parameter nonlinear fitting.
Binder,Response [1],koff [1] [s⁻¹],EC50 [2] [nM],Maximum MFI [2],Kdis fold [3],Maximum MFI [4],Maximum MFI [5],EC50 [4] [nM]
"PR004564, PR001046 VH-derived single-domain variant 1046-R2-2D4 (VHH, Tested as VH single domain with Flag and His tags; not shown: Flag and His tags) VHH: EVQLVETGGGLIQPGGSLRLSCAASGFTVSDSYMTWVRQAPGKGLEWVSVIFSGGRTYYSDSVKGRFTISRDNAKNTLYLQMNSLRAEDTALYYCARRNYDQTLGTDVFDIWGQGTMVTVSS",0.57,0.000228,1.34,1530,0.33,,,
"PR004572, PR001046 VH-derived single-domain variant 1046-R2-7E7 (VHH, Tested as VH single domain with Flag and His tags; also called PR001046-R2-7E7; not shown: Flag and His tags) VHH: EVQLVETGGGLIQPGGSLRLSCAASGFTVSDSYMTWVRQAPGKGLEWVSVIFSGGKTYVADSVKGRFTISRDNAKNTLYLQMNSLRAEDTALYYCARRNYDDTRGTDVFDIWGQGTMVTVSS",0.29,0.000236,0.54,1500,0.34,,,
"PR004569, PR001046 VH-derived single-domain variant 1046-R2-5H2 (VHH, Tested as VH single domain with Flag and His tags; not shown: Flag and His tags) VHH: EVQLVETGGGLIQPGGSLRLSCAASGFTVSDSYMTWVRQAPGKGLEWVSVIFSGGRTYYSDSVKGRFTISRDNAKNTLYLQMNSLRAEDTALYYCARRNYDQTRGTDVFDIWGQGTMVTVSS",0.73,0.000254,5.87,1420,0.36,,,
"PR004568, PR001046 VH-derived single-domain variant 1046-R2-5H1 (VHH, Tested as VH single domain with Flag and His tags; not shown: Flag and His tags) VHH: EVQLVETGGGLIQPGGSLRLSCAASGFTVSDAYMTWVRQAPGKGLEWVSVIFSGGRTYVADSVKGRFTISRDNAKNTLYLQMNSLRAEDTALYYCARRNYDDTRGTDVFDIWGQGTMVTVSS",0.733,0.00023,2.85,1440,0.33,,,
"PR004570, PR001046 VH-derived single-domain variant 1046-R2-6D6 (VHH, Tested as VH single domain with Flag and His tags; not shown: Flag and His tags) VHH: EVQLVETGGGLIQPGGSLRLSCAASGFTVSDAYMTWVRQAPGKGLEWVSVIFSGGRTYYADSVKGRFTISRDNAKNTLYLQMNSLRAEDTALYYCARRNYDQTRGTDVFDIWGQGTMVTVSS",0.437,0.000234,2.15,1360,0.34,,,
"PR004565, PR001046 VH-derived single-domain variant 1046-R2-2G4 (VHH, Tested as VH single domain with Flag and His tags; not shown: Flag and His tags) VHH: EVQLVETGGGLIQPGGSLRLSCAASGFTVSDAYMTWVRQAPGKGLEWVSVIFSGGNTYVSDSVKGRFTISRDNAKNTLYLQMNSLRAEDTALYYCARRNYDQTIGTDVFDIWGQGTMVTVSS",0.557,0.000236,2.42,1430,0.34,,,
"PR004567, PR001046 VH-derived single-domain variant 1046-R2-5E1 (VHH, Tested as VH single domain with Flag and His tags; not shown: Flag and His tags) VHH: EVQLVETGGGLIQPGGSLRLSCAASGFTVSDSYMTWVRQAPGKGLEWVSVIFSGGKTYVADSVKGRFTISRDNAKNTLYLQMNSLRAEDTALYYCARRNYDQTRGTDVFDIWGQGTMVTVSS",0.578,0.000201,1.72,1440,0.29,,,
"PR004566, PR001046 VH-derived single-domain variant 1046-R2-4G10 (VHH, Tested as VH single domain with Flag and His tags; not shown: Flag and His tags) VHH: EVQLVETGGGLIQPGGSLRLSCAASGFTVSDSYMTWVRQAPGKGLEWVSVIFSGGRTYYSDSVKGRFTISRDNAKNTLYLQMNSLRAEDTALYYCARRNYDDTRGTDVFDIWGQGTMVTVSS",0.424,0.000286,3.17,1400,0.41,,,
"PR004571, PR001046 VH-derived single-domain variant 1046-R2-6F1 (VHH, Tested as VH single domain with Flag and His tags; not shown: Flag and His tags) VHH: EVQLVETGGGLIQPGGSLRLSCAASGFTVSDSYMTWVRQAPGKGLEWVSVIFSGGKTYYSDSVKGRFTISRDNAKNTLYLQMNSLRAEDTALYYCARRNYDQTIGTDVFDIWGQGTMVTVSS",0.704,0.000219,2.86,1380,0.31,,,
"PR004574, PR001046 VH-derived single-domain variant 1046-R2-9E5 (VHH, Tested as VH single domain with Flag and His tags; not shown: Flag and His tags) VHH: EVQLVETGGGLIQPGGSLRLSCAASGFTVSDAYMTWVRQAPGKGLEWVSVIFSGGRTYYSDSVKGRFTISRDNAKNTLYLQMNSLRAEDTALYYCARRNYDQTRGTDVFDIWGQGTMVTVSS",0.29,0.000314,2.9,1300,0.45,,,
"PR004573, PR001046 VH-derived single-domain variant 1046-R2-8B1 (VHH, Tested as VH single domain with Flag and His tags; not shown: Flag and His tags) VHH: EVQLVETGGGLIQPGGSLRLSCAASGFTVSDSYMTWVRQAPGKGLEWVSVIFSGGKTYYADSVKGRFTISRDNAKNTLYLQMNSLRAEDTALYYCARRNYDDTRGTDVFDIWGQGTMVTVSS",0.268,0.000282,1.72,1230,0.41,,,
"PR002301 (bispecific antibody, human IgG1, lambda, L234A L235A) light: QAVVTQEPSLTVSPGGTVTLTCRSSTGAVTTSNYANWVQQKPGQAPRGLIGGTNKRAPWTPARFSGSLLGDKAALTLLGAQPEDEAEYFCALWYSNLWVFGGGTKLTVLGQPKAAPSVTLFPPSSEELQANKATLVCLISDFYPGAVTVAWKADSSPVKAGVETTTPSKQSNNKYAASSYLSLTPEQWKSHRSYSCQVTHEGSTVEKTVAPTECS heavy: EVQLLESGGGLVQPGGSLRLSCAASGFTFSTYAMNWVRQAPGKGLEWVSRIRSKYNNYATYYADSVKDRFTISRDDSKSTLYLQMNSLRAEDTAVYYCVRHGNFGNSYVSWFAYWGQGTLVTVSSASTKGPSVFPLAPSSKSTSGGTAALGCLVKDYFPEPVTVSWNSGALTSGVHTFPAVLQSSGLYSLSSVVTVPSSSLGTQTYICNVNHKPSNTKVDKKVEPKSCDKTHTCPPCPAPEAAGGPSVFLFPPKPKDTLMISRTPEVTCVVVDVSHEDPEVKFNWYVDGVEVHNAKTKPREEQYNSTYRVVSVLTVLHQDWLNGKEYKCKVSNKALGAPIEKTISKAKGQPREPQVYTLPPCREEMTKNQVSLWCLVKGFYPSDIAVEWESNGQPENNYKTTPPVLDSDGSFFLYSKLTVDKSRWQQGNVFSCSVMHEALHNHYTQKSLSLSPGK EVQLLESGGGLVQPGGSLRLSCAASGFTFSSYAMIWVRQAPGKGLEWVSGISESGGSTYYADSVKGRFTISRDNSKNTLYLQMNSLRAEDTAVYFCVKDLDDILTGYYKDYWGQGTLVTVSSRTGGGGSGGGGSGGGGSGGGGSGGGGSKLEVQLLESGGGLVQPGGSLRLSCAASGFTFSSYAMIWVRQAPGKGLEWVSGISESGGSTYYADSVKGRFTISRDNSKNTLYLQMNSLRAEDTAVYFCVKDLDDILTGYYKDYWGQGTLVTVSSASEPKSSDKTHTCPPCPAPEAAGGPSVFLFPPKPKDTLMISRTPEVTCVVVDVSHEDPEVKFNWYVDGVEVHNAKTKPREEQYNSTYRVVSVLTVLHQDWLNGKEYKCKVSNKALGAPIEKTISKAKGQPREPQVCTLPPSREEMTKNQVSLSCAVKGFYPSDIAVEWESNGQPENNYKTTPPVLDSDGSFFLVSKLTVDKSRWQQGNVFSCSVMHEALHNHYTQKSLSLSPGK",,,,,,53000,13000,
"PR002308 (bispecific antibody, human IgG1, lambda, L234A L235A) light: QAVVTQEPSLTVSPGGTVTLTCRSSTGAVTTSNYANWVQQKPGQAPRGLIGGTNKRAPWTPARFSGSLLGDKAALTLLGAQPEDEAEYFCALWYSNLWVFGGGTKLTVLGQPKAAPSVTLFPPSSEELQANKATLVCLISDFYPGAVTVAWKADSSPVKAGVETTTPSKQSNNKYAASSYLSLTPEQWKSHRSYSCQVTHEGSTVEKTVAPTECS heavy: EVQLLESGGGLVQPGGSLRLSCAASGFTFSTYAMNWVRQAPGKGLEWVSRIRSKYNNYATYYADSVKDRFTISRDDSKSTLYLQMNSLRAEDTAVYYCVRHGNFGNSYVSWFAYWGQGTLVTVSSASTKGPSVFPLAPSSKSTSGGTAALGCLVKDYFPEPVTVSWNSGALTSGVHTFPAVLQSSGLYSLSSVVTVPSSSLGTQTYICNVNHKPSNTKVDKKVEPKSCDKTHTCPPCPAPEAAGGPSVFLFPPKPKDTLMISRTPEVTCVVVDVSHEDPEVKFNWYVDGVEVHNAKTKPREEQYNSTYRVVSVLTVLHQDWLNGKEYKCKVSNKALGAPIEKTISKAKGQPREPQVYTLPPCREEMTKNQVSLWCLVKGFYPSDIAVEWESNGQPENNYKTTPPVLDSDGSFFLYSKLTVDKSRWQQGNVFSCSVMHEALHNHYTQKSLSLSPGK EVQLVETGGGLIQPGGSLRLSCAASGFTVSDNYMTWVRQAPGKGLEWVSVIFSGGNTYYADSVKGRFTISRDNAKNTLYLQMNSLRAEDTALYYCARRNYDDTRGTDVFDIWGQGTMVTVSSRTGGGGSKLEVQLVETGGGLIQPGGSLRLSCAASGFTVSDNYMTWVRQAPGKGLEWVSVIFSGGNTYYADSVKGRFTISRDNAKNTLYLQMNSLRAEDTALYYCARRNYDDTRGTDVFDIWGQGTMVTVSSASEPKSSDKTHTCPPCPAPEAAGGPSVFLFPPKPKDTLMISRTPEVTCVVVDVSHEDPEVKFNWYVDGVEVHNAKTKPREEQYNSTYRVVSVLTVLHQDWLNGKEYKCKVSNKALGAPIEKTISKAKGQPREPQVCTLPPSREEMTKNQVSLSCAVKGFYPSDIAVEWESNGQPENNYKTTPPVLDSDGSFFLVSKLTVDKSRWQQGNVFSCSVMHEALHNHYTQKSLSLSPGK",,,,,,63900,39300,1.82
